# Data from US20240398993A1, “SMALL MOLECULE-REGULATED GENE EXPRESSION SYSTEM” (Outpace Bio, Inc., priority 2021, published 2024).
# “Also recorded” adds a separate entry of the source.
# Columns and labels:
# HEK293 cells = experiment: Danoprevir-induced EGFP reporter expression in transduced HEK293 cells, flow cytometry; assay type: cell-based
# Jurkat cells = experiment: Danoprevir-induced GFP/EGFP reporter expression in transduced Jurkat cells, flow cytometry; assay type: cell-based; settings: for induced GFP expression (gMFI): 500 nM danoprevir 24 hours, ZF DBD-NS3a / DNCR2-TAD panel, YB_TATA minimal promoter, FIG. 11
# [1] = titration of danoprevir, IPV16/TFV1 versus IPV16/TFV23, FIG. 18
molecule,measurement,setting,value
"CC(C)(C)OC(=O)N[C@H]1CCCCC/C=C\[C@@H]2C[C@@]2(C(=O)NS(=O)(=O)C2CC2)NC(=O)[C@@H]2C[C@@H](OC(=O)N3Cc4cccc(F)c4C3)CN2C1=O [danoprevir, (2R,6S,12Z,13aS,14aR,16aS)-14a-[(Cyclopropylsulfonyl)carbamoyl]-6-({[(2-methyl-2-propanyl)oxy]carbonyl}amino)-5,16-dioxo-1,2,3,5,6,7,8,9,10,11,13a,14,14a,15,16,16a-hexadecahydrocyclopropa[e]pyrrolo[1,2-a][1,4]diazacyclopentadecin-2-yl 4-fluoro-1,3-dihydro-2H-isoindole-2-carboxylate, reference compound]",danoprevir EC50 of EGFP expression,HEK293 cells; [1],equivalent
same,maximal EGFP expression levels,HEK293 cells; [1],equivalent
"p65: transcriptional activation domain fused to DNCR2 (SEQ ID NO: 51) (protein, Synthetic polypeptide DNCR2-p65mini) SSDEEEARELIERAKEAAERAQEAAERTGDPRVRELARELKRLAQEAAEEVKRDPSSSDVNEALKLIVEAIEAAVDALEAAERTGDPEVRELARELVRLAVEAAEEVQRNPSSSDVNEALHSIVYAIEAAIFALEAAERTGDPEVRELARELVRLAVEAAEEVQRNPSSRNVEHALMRIVLAIYLAEENLREAEESGDPEKREKARERVREAVERAEEVQRDPSGWLNHSGGGSGVDGSPKKKRKVGSVLPQAPAPAPAPAMVSALAQAPAPVPVLAPGPPQAVAPPAPKPTQAGEGTLSEALLQLQFDDEDLGALLGNSTDPAVFTDLASVDNSEFQQLLNQGIPVAPHTTEPMLMEYPEAITRLVTGAQRPPDPAPAPLGAPGLPNGLLSGDEDFSSIADMDFSALL",induced GFP expression (gMFI),Jurkat cells,very weak
"ANR-SPOP: E3 ligase SPOP fused to the apo-NS3a reader ANR, SEQ ID NO: 157, expressed from IPV18 or TFV23 (protein, Synthetic polypeptide ANR-SPOP) GELDELVYLLDGPGYDPIHSDVVTRGGSHLFNFSGSSGGSGVNISGQNTMNMVKVPECRLADELGGLWENSRFTDCCLCVAGQEFQAHKAILAARSPVFSAMFEHEMEESKKNRVEINDVEPEVFKEMMCFIYTGKAPNLDKMADDLLAAADKYALERLKVMCEDALCSNLSVENAAEILILADLHSADQLKTQAVDFINYHASDVLETSGWKSMVVSHPHLVAEAYRSLASAQCPFLGPPRKRLKQS","maximal danoprevir-induced EGFP expression, element expressed inducibly from the inducible promoter vector","HEK293 cells; 100 nM danoprevir, HEK293 cells, plot 1725",reduced the maximal danoprevir-induced EGFP expression
same,"danoprevir-induced EGFP expression, element expressed from the transcription factor vector","HEK293 cells; 100 nM danoprevir, HEK293 cells, plot 1730",maintaining high danoprevir-induced expression
same,"background EGFP expression level, fold lower than the system without ANR-SPOP","HEK293 cells; DMSO, IPV16/TFV23 versus IPV16/TFV1, plot 1800",about 3 times
same,"background (leaky) EGFP expression, DMSO","HEK293 cells; HEK293 cells, compared to wild type cells, FIG. 16-18",effectively removed any leaky background expression of EGFP; also recorded: indistinguishable from wild type HEK293 cells
"p65-HSF1: transcriptional activation domain of all-human components fused to DNCR2 (SEQ ID NO: 52) (protein, Synthetic polypeptide DNCR2-p65mini-HSF1) SSDEEEARELIERAKEAAERAQEAAERTGDPRVRELARELKRLAQEAAEEVKRDPSSSDVNEALKLIVEAIEAAVDALEAAERTGDPEVRELARELVRLAVEAAEEVQRNPSSSDVNEALHSIVYAIEAAIFALEAAERTGDPEVRELARELVRLAVEAAEEVQRNPSSRNVEHALMRIVLAIYLAEENLREAEESGDPEKREKARERVREAVERAEEVQRDPSGWLNHSGGGSGVDGSPKKKRKVGSVLPQAPAPAPAPAMVSALAQAPAPVPVLAPGPPQAVAPPAPKPTQAGEGTLSEALLQLQFDDEDLGALLGNSTDPAVFTDLASVDNSEFQQLLNQGIPVAPHTTEPMLMEYPEAITRLVTGAQRPPDPAPAPLGAPGLPNGLLSGDEDFSSIADMDFSALLSGSGGFSVDTSALLDLFSPSVTVPDMSLPDLDSSLASIQELLSPQEPPRPPEAENSSPDSGKQLVHYTAQPLFLLDPGSVDTGSNDLPVLFELGEGSYFSEGDGFAEDPTISLLTGSEPPKAKDPTVS",induced GFP expression (gMFI),Jurkat cells,moderate induction levels
"ZFHIV2: zinc finger DNA binding domain fused to NS3a (NS3a-ZFHIV2, SEQ ID NO: 71) (protein, Synthetic polypeptide NS3a-ZFHIV2) KKKGSVVIVGRINLSGDTAYAQQTRGEEGCQETSQTGRDKNQVEGEVQIVSTATQTFLATSINGVLWTVYHGAGTRTIASPKGPVTQMYTNVDKDLVGWQAPQGSRSLTPCTCGSSDLYLVTRHADVIPVRRRGDSRGSLLSPRPISYLKGSAGGPLLCPAGHAVGIFRAAVSTRGVAKAVDFIPVESLETTMRSPGSGAAASGGGGSGGGGSGGTPPHERPFQCRICMRNFSNNAMLVRHTRTHTGEKPFQCRICMRNFSLSQTLQRHLRTHTGEKPFQCRICMRNFSMQGNLSRHLKTHLRGS",induced GFP expression (gMFI),Jurkat cells,highest induced GFP levels
same,"induction of GFP expression (gMFI), 12×RE versus 6×RE","Jurkat cells; DNCR2-VPRmini, FIG. 12",lower induction
same,"induction of GFP expression (gMFI), leucine zipper (LZ) between NS3a and ZF versus direct fusion","Jurkat cells; DNCR2-VPRmini, TFV19, TFV20, FIG. 12",higher maximal induction
